The term Kd denotes the equilibrium constant for the complex coming apart. A high value points to a looser complex. For orientation: koff means the rate constant with which the complex falls apart. Low values mean slow dissociation, high ones fast dissociation. A word on the kon: it is a measure of how fast the partners come together. A high value points to fast association.

Substitutions are numbered along the chain they refer to.

The target in one test is T1, amyloid beta 1-42 fibers (UniProt P05067 672-713).
T1 construct: domain: amyloid beta 1-42; Many copies per fiber; also called Aβ1-42 fibers; fibrillar Aβ1-42
In words: SPR (BIACORE), Aβ1-42 fibers immobilized on CM5 chip, antibody 0.05-1.0 µM. As for the experimental part: (§1) BIACORE® technology utilizes changes in the refractive index at the surface layer upon binding of the antibody to the antigen immobilized on the layer. Binding is detected by surface plasmon resonance (SPR) of laser light refracting from the surface. Analysis of the signal kinetics on rate and off rate allows the discrimination between non-specific and specific interaction. The concentration of antibody used was in the range of 0.05 μM to 1.0 μM.
For orientation: Surface plasmon resonance follows binding to a sensor surface in real time, without labels.

Test [1] addresses T2, amyloid beta 1-42 monomers (UniProt P05067 672-713).
T2 construct: domain: amyloid beta 1-42; also called Aβ1-42 monomers; amyloid monomers
Kind of test: SPR (BIACORE), Aβ1-42 monomers immobilized on CM5 chip, antibody 0.05-1.0 µM. As for the experimental part: as §1

The target in test [2] is T3, Amyloid Beta (antigen of the Amyloid Beta ELISA) (UniProt P05067 672-713, limits assumed). In words: Amyloid Beta ELISA, conditioned medium from transient transfection. (An ELISA detects its analyte on a solid surface through an enzyme-linked reagent.)
Test [3] deals with T3, Amyloid Beta (antigen of the Amyloid …). In words: Amyloid Beta ELISA, purified antibodies.

T1 sequence (P05067 672-713 limits assumed): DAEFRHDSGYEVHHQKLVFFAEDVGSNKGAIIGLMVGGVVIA
T2 sequence (P05067 672-713 limits assumed): as above
T3 sequence (P05067 672-713 limits assumed): as above

B1: chimeric antibody C2 ChVH AF/ChVK (antibody, human IgG4 S228P, kappa, V domains shown)
VH: EVQLVESGGGLVQPGGSLKLSCAASGFTFSSYGMSWVRQTPDKRLELVASINSNGGSTYYPDSVKGRFTISRDNAKNTLYLQMSSLKSEDTAMYYCASGDYWGQGSTLTVSS
VL: DVVMTQTPLSLPVSLGDQASISCRSSQSLVYSNGDTYLHWYLQKPGQSPKLLIYKVSNRFSGVPDRFSGSGSGTDFTLKISRVEAEDLGVYFCSQSTHVPWTFGGGTKLEIKR
notes: also called C2 VH AF/C2 VK chimeric antibody; chimeric AF
In the test with amyloid beta 1-42 fibers, B1 registered a dissociation constant Kd of 6.5 nM, an off-rate constant (koff) of 0.00033 s⁻¹ and a kon of 51000 M⁻¹ s⁻¹. In test [1], this molecule gave a Kd of 20 nM, a dissociation rate constant (koff) of 0.00095 s⁻¹ and a kon of 47000 M⁻¹ s⁻¹.

B2: C2 HuVH AF version 3 combined with the chimeric C2 kappa chain (antibody, V domains shown)
VH: EVQLVESGGGLVQPGGSLRLSCAASGFTFSSYGMSWVRQAPGKGLELVASINSNGGSTYYPDSVKGRFTISRDNAKNSLYLQMNSLRAEDTAVYYCARGDYWGQGTTVTVSS
VL: DVVMTQTPLSLPVSLGDQASISCRSSQSLVYSNGDTYLHWYLQKPGQSPKLLIYKVSNRFSGVPDRFSGSGSGTDFTLKISRVEAEDLGVYFCSQSTHVPWTFGGGTKLEIK
notes: Transient expression in HEK293; also called C2HuVHAF3/ChVK
Turning to B2, the binding result in test [2] is “no binding”.

B3: humanized antibody C2HuVH4/HuVK1 (antibody, human IgG4 S228P, kappa, V domains shown)
VH: B2 VH with R98S
VL: DIVMTQSPLSLPVTPGEPASISCRSSQSLVYSNGDTYLHWYLQKPGQSPQLLIYKVSNRFSGVPDRFSGSGSGTDFTLKISRVEAEDVGVYYCSQSTHVPWTFGQGTKVEIKR
notes: also called H4K1; humanized H4K1
In the test with amyloid beta 1-42 fibers, B3 returned a Kd of 4.7 nM, a koff of 0.00023 s⁻¹ and a kon of 49000 M⁻¹ s⁻¹. In test [1], this molecule gave a Kd of 19 nM, a koff of 0.00095 s⁻¹ and a kon of 50000 M⁻¹ s⁻¹.

B4: humanized antibody C2 HuVH2/HuVK3 (antibody, human IgG4 S228P, kappa, V domains shown)
VH: B2 VH with L47W, R98S
VL: B3 VL with Q50K
notes: also called C2HuVHAF2 with C2HuVK3
For the molecule B4, in test [3], the “fold reduction of binding activity against chimeric control antibody C2 ChVHAF/ChVK” value is approximately 2 fold.
